From US11932673B2, “Sodium channel inhibitors” (priority 2017, dated 2024)

Columns and labels:
human Nav1.7 = human Nav1.7 (Homo sapiens, UniProt Q15858); assay: QPatch patch-clamp on CHO cells stably expressing human Nav1.7, four-point concentration-response (Example 21); format: cell-based; conditions: every 15-minute application of equivalent concentrations
Protocol: The effect of these KnotBodies on cells expressing human Nav1.7 (huNav1.7) channel was then assessed using QPatch automated patch-clamp platform (Sophion). For the testing of Nav1.7 ion channel currents, CHO cells stably expressing human Nav1.7 (GenBank accession number NM 002977; cell line catalogue number CT6003, Charles River Discovery, Cleveland, USA) were subjected to the QPatch electrophysiology assay in the presence or absence of the KnotBody fusions or the antibody isotypes (negative controls). Internal and external physiological solutions were freshly prepared prior to the assay. […] To these measured control currents four ascending concentrations (0.37, 1.1, 3.3 and 10 μM) of KnotBody or parental antibody isotypes (control molecules) were applied to the external bathing solution containing 0.1% BSA. […] The elicited, maximum outward current values measured during the −10 mV activating step for each solution period (a control, baseline level of current was determined at 15 minutes after application of the control external recording solution and a test level of current was determined after 15 minutes of application of each concentration of KnotBody or its isotype control) and average inhibition was determined. […] From these concentration-response curves IC50 values were calculated.

trypsin = assay: Phage trypsin binding assay, KB_A12 versus EETI-II cow ULVC-Ab; conditions: PEG precipitated phage, 12.5x and 0.5x
Description: Bovine antibodies have been described with natural ultra-long VH CDR3s containing a solvent exposed double stranded antiparallel sheet approximately 20 A° in length (referred to as the stalk) presenting a folded domain stabilised by 3 disulfide bonds (referred to as the Knob)^10. Zhang and colleagues have shown that the Knob domains of these cow ultra-long VH CDR3 antibodies (ULVC-Ab) can be replaced with other folded proteins such as erythropoietin^13. In this example, we assess the ability of a cow ULVC-Ab to present functional knottin fusions on phage in comparison with a KnotBody. In order to create a Knottin-cow UCLA fusion, the sequence between the first and the last cysteines of the knob region of the Cow ULVC-Ab BLV1H12 was replaced with the sequence of the trypsin binding knottin; EETI-II (EETI-II cow ULVC-Ab). A gene fragment encoding this construct was synthesised (Integrated DNA technologies, Table 21). This synthetic gene was cloned into the phage display vector pSANG4 using restriction sites NcoI and NotI and transformed into E. coli TG1 cells. […] In this assay, the binding of phage rescued from EETI-II cow ULVC-Ab and KB_A12 to trypsin was detected using an anti-M13 antibody followed by europium conjugated anti-mouse antibody (as described in example 3).

Chain of human Nav1.7 (Q15858 other isoform, or with tags, fused parts or gaps): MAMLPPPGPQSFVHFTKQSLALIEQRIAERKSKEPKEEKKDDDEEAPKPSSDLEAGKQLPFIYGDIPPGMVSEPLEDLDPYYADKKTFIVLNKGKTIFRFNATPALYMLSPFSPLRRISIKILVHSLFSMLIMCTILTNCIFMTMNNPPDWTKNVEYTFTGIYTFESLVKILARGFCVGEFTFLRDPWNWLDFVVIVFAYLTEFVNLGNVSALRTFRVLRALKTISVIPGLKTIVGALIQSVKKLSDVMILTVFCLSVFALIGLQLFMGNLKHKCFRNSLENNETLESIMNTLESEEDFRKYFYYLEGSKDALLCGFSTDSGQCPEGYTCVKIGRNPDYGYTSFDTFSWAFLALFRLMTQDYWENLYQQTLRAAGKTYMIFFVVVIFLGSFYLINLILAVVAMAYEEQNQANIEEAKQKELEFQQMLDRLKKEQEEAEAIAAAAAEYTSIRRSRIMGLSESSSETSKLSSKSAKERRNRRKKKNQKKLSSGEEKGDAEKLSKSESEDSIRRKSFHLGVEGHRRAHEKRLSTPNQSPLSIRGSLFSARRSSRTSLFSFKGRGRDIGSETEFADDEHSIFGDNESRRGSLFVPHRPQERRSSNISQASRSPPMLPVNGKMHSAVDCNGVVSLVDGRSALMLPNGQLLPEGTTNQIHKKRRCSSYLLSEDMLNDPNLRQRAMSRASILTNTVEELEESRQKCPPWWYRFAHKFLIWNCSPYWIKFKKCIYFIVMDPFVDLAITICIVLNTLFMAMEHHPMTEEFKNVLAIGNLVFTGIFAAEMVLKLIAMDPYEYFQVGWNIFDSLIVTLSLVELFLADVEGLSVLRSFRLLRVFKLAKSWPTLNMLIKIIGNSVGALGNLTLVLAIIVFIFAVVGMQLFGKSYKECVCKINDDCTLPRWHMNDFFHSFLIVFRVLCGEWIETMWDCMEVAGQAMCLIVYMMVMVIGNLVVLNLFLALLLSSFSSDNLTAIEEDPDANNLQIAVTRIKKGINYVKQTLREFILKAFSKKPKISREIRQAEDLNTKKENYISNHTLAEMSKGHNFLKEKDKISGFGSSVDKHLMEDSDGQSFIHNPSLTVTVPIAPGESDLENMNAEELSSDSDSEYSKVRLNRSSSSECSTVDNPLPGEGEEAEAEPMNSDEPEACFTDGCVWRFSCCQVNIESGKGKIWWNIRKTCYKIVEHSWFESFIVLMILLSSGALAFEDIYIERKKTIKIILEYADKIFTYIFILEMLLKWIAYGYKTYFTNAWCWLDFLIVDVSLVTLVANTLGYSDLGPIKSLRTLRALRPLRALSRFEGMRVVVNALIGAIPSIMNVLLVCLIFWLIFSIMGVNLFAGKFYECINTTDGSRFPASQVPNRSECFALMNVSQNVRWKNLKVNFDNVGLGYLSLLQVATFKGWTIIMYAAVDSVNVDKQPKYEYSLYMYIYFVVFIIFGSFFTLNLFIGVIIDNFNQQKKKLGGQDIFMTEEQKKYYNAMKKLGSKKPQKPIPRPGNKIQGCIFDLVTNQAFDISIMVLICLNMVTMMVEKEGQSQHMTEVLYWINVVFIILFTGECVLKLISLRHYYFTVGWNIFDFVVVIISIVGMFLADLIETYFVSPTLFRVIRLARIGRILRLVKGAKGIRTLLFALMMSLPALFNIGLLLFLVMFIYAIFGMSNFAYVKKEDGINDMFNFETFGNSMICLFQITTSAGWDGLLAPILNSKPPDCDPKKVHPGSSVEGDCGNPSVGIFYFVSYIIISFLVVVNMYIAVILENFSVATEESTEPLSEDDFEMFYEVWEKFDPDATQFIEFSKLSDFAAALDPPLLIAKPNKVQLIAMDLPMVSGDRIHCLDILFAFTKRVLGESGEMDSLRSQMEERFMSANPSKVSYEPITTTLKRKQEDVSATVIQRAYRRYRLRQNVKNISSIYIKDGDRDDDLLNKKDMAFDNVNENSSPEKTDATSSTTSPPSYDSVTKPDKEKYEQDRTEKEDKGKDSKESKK

B1: KB_A12: EETI-II VL CDR2 KnotBody, D1A12 VH, VL SEQ ID NO: 105/373; parental/isotype control (antibody, V domains shown)
VH: EVQLVESGGGLVRPGGSLRLSCAASGFTFSSYAMSWVRQAPGKGLEWVSAISGSGGSTYYADSVKGRFTISRDNTKNSLYLQMTSLRADDTAFYYCVKDFGPGYGTGWFDYWGPGTLVTVSS
VL: QSVLTQPPSVSEAPRQRVTITCSGSSSNIGNNAVNWYQQLPGKAPKLLIYAAGRCPRILMRCKQDSDCLAGCVCGPNGFCGANSGVSDRFSAAKSGTSASLAINGLRSEDEADYYCAAWDDSLNGYVFGTGTKLTVLG
In the case of B1, the cumulative current loss (human Nav1.7) is reported as roughly 5% and the “phage binding to trypsin” value (trypsin) is reported as “superior binding to trypsin compared to the EET-II-Cow ULVC-Ab fusion”.
